# Reference: publication PMC4358367, “Structural basis of diverse membrane target recognitions by ankyrins” (eLife, 2014)
# T1: AnkG_repeats (24 ANK repeats of rat 190 kDa ankyrin-G, residues 38–855), O70511
# T1 chain: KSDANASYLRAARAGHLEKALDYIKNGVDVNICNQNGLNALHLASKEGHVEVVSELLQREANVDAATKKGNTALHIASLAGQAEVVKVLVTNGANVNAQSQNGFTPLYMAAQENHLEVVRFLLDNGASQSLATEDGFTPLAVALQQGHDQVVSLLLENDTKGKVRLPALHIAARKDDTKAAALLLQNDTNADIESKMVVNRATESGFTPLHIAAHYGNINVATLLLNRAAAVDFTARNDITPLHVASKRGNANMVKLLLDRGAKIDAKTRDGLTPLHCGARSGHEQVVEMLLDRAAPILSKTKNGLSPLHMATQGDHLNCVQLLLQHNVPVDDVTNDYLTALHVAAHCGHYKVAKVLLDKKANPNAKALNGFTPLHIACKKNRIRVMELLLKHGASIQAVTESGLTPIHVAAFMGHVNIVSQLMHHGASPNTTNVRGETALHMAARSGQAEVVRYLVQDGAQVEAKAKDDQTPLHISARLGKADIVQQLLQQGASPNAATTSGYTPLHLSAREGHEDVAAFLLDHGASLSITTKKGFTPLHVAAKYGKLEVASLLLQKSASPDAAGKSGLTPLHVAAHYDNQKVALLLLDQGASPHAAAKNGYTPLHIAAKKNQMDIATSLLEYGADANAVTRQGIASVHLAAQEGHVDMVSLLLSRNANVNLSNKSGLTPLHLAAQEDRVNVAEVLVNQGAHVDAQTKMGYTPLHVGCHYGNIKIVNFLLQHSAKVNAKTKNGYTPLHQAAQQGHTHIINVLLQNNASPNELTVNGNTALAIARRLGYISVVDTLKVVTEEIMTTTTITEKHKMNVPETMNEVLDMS
# T2: AnkG_repeats (Rattus norvegicus, UniProt O70511)
# T2 construct: thioredoxin-His6 (N); made in house; host or cells: Escherichia coli BL21 (DE3)
# T2 sequence (O70511 38-855): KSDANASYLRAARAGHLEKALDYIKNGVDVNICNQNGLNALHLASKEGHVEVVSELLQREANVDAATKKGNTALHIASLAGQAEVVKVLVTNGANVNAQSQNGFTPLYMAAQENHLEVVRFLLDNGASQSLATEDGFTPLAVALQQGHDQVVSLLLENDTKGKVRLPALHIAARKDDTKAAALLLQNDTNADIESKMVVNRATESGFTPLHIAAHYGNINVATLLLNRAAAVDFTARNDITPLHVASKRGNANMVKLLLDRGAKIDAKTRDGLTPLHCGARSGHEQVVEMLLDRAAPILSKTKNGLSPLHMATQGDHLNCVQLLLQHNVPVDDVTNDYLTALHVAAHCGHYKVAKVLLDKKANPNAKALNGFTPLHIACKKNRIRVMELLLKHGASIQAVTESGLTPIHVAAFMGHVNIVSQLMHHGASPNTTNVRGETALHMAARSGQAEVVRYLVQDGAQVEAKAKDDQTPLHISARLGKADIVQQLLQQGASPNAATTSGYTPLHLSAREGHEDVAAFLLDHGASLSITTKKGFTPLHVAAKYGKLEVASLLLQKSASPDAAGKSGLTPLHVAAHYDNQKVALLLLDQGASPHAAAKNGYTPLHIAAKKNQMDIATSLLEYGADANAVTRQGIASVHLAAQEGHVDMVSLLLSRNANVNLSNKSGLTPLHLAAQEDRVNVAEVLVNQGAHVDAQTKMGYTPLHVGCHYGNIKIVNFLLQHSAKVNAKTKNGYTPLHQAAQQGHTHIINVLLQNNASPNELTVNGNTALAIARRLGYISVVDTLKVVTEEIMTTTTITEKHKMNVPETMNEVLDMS
# T3: AnkG_repeats (24 ANK repeats of rat 190 kDa ankyrin-G, residues 38–855) (rat, UniProt O70511 38-855)
# T3 chain: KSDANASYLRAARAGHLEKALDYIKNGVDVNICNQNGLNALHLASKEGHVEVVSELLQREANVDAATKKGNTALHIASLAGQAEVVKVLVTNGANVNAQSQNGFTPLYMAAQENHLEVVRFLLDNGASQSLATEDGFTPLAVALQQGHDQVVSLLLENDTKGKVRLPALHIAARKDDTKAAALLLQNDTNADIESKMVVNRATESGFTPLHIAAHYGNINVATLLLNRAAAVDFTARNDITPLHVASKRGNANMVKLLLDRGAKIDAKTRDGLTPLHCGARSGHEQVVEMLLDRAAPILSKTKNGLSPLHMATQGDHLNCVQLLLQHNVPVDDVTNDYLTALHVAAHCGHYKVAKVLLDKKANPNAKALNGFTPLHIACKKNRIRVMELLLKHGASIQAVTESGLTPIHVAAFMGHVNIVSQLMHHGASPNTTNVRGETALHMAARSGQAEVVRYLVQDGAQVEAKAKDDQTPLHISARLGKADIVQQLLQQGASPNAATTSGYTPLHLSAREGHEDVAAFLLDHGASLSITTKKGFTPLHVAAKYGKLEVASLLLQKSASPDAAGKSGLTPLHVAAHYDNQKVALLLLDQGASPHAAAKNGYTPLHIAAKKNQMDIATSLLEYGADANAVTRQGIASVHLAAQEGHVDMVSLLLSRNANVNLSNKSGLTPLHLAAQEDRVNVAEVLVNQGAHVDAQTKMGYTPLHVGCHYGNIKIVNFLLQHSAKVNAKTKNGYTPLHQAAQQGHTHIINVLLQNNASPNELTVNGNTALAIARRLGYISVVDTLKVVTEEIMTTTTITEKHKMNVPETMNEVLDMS
# B1: Nav1.2_ABD (ankyrin binding domain of Nav1.2, residues 1035–1129) E1112Q (protein)
# chain: KALDEIKPLEDLNNKKDSCISNHTTIEIGKDLNYLKDGNGTTSGIGSSVEKYVVDESDYMSFINNPSLTVTVPIAVGQSDFENLNTEEFSSESDM
# B2: Nav1.2_ABD (ankyrin binding domain of Nav1.2, residues 1035–1129) E1112A (protein)
# chain: KALDEIKPLEDLNNKKDSCISNHTTIEIGKDLNYLKDGNGTTSGIGSSVEKYVVDESDYMSFINNPSLTVTVPIAVGASDFENLNTEEFSSESDM
# B3: ABD-N (1035 - 1102): N-terminal 68-residue fragment of Nav1.2 loop 2 (residues 1035–1102) (protein, UniProt Q99250 1035-1102, looked up, fragment)
# chain: ALDEIKPLEDLNNKKDSCISNHTTIEIGKDLNYLKDGNGTTSGIGSSVEKYVVDESDYMSFINNPSLT
# B4: Nav1.2 ABD without the C-terminal less-conserved 10 residues of ABD-C (domain or fragment)
# chain: KALDEIKPLEDLNNKKDSCISNHTTIEIGKDLNYLKDGNGTTSGIGSSVEKYVVDESDYMSFINNPSLTVTVPIAVGESDFENLN
# Tests used:
# [1] = target: T1, AnkG_repeats (24 ANK repeats of rat 190 …); test: ITC; conditions: chain shown with the change
# AnkG_repeats = target: T2, AnkG_repeats; test: ITC binding to AnkG_repeats WT; conditions: 25°C, 50 mM Tris, 100 mM NaCl, 1 mM EDTA, 1 mM DTT, pH 7.5, one-site binding model, AnkG_repeats WT
# Excerpt: The coding sequences of AnkB_repeats (residues 28–873) were PCR amplified using the full-length human 220 kDa AnkB as the template. The coding sequences of the AnkR constructs, including AnkR_repeats (residues 42–853), and the full length AnkR C-terminal domain (residues 1529–1907), were PCR amplified from a mouse muscle cDNA library. The coding sequence of AnkG_repeats (residues 38–855) were PCR amplified using the full-length rat 190 kDa AnkG as the template. The fusion construct of AnkR_AS and AnkB_repeats was made by standard two-step PCR with a coding sequence of thrombin recognition residues ‘GSLVPRGS’ as the linker. This construct was used to crystallize and determine the complex structure. The same strategy was used in making other fusion constructs, including the Nav1.2_ABD-C/AnkB_repeats_R1–9 fusion construct containing residues 1103–1129 from mouse Nav1.2 and human AnkB residues 28–318 followed by a capping sequence corresponding to the αB of R24 (residues 814–822) and the AnkR_AS/AnkG_repeats fusion construct. For truncation mutations of ANK repeats constructs, the same capping sequence was added to the appropriate region of the C-terminus of each construct for protein stabilization. Mouse Nav1.2 (NP_001092768.1) and mouse neurofascin (CAD65849.1) were used here for studying their interaction with ankyrins. Peptides for mouse KCNQ2 (NP_034741.2, residues 826–845) and mouse Cav1.3 (NP_083257.2, residues 2134–2166) were commercially synthesized. For simplicity, we used human 220 kDa AnkB for the amino acid numbering throughout the manuscript. For the corresponding point mutations made on AnkG_repeats, each residue number should be increased by 10. All point mutations were created using the Quick Change site-directed mutagenesis kit and confirmed by DNA sequencing. […]
# Isothermal titration calorimetry (ITC) measurements were carried out on a VP-ITC MicroCal calorimeter (MicroCal, Northampton, MA) at 25°C. […] The titration data were analyzed using the program Origin 7.0 and fitted by the one-site binding model.
# [2] = target: T3, AnkG_repeats (24 ANK repeats of rat 190 …); test: ITC
molecule,measurement,setting,value
B1,Kd,[1],4.6 µM
B2,Kd,[1],4.3 µM
B3,Kd,AnkG_repeats,8.1 ± 1.1 µM
same,Kd,AnkG_repeats; listed as ABD-N,~8 µM
B4,Kd,[2],0.17 µM
